The nanobody polyreactivity screen of Harvey et al. (2022)

Assay: yeast display, Sf9 membrane polyspecificity reagent, FACS + sequencing; frameworks hold sequencing errors
Outline: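 Galactose-induced (36–48 hours) yeast carrying a synthetic nanobody display library were exposed to 10% biotinylated, detergent-solubilized Sf9 membrane reagent at 4 °C for 1 hour. FACS followed streptavidin microbead enrichment, using low and high (top ~1%) gates for expression (anti-HA) and reagent binding (streptavidin). Colony PCR, MiSeq 2 × 250 sequencing and CDR-length filtering followed. Labels for polyreactivity reflect the gate of origin.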

Sequence | polyreactivity (PSR sort gate)
QVQLGESGGGLVQAGGSLRLSCAASGFTFGRYTMGWYRPAPGKERELVASITSSGARTYYADSVKGRFTISRDNAKNTVYLQMNSLKPEDTAVYYCNAGKRGSTYYYWGQGTQVTVSS | high polyreactivity
QVQLVESGGGLVQAGGSLRLSCAASGRTFGSYAMGWYRQAPGKERELVAAITWSGGITYFADSVKGRFTISRDNAKNTVYLKMNSLKPEDTAVYYCNVYVSAGEEDEYWGQGTQVTVSS | low polyreactivity
QVQLVESGGGLVQAGGSLRLSCAASGFIFDVNAMGWYRQAPGKERELVAAISRSGSSTYYADSVKGRFTISRDNAKNTVYFQMNSLKPEDTAVYYCAAEYYRNFYCSRGYWGQGTQVTVSS | high polyreactivity
QVQLVESGGGLVQAGGSLRLSCAASGSIFGIYAMGWYRQAPGKERELVAAISSRAGSTNYADSVKGRFTISRDNAKNTVYLKMNSLKPEDTAVYDCNAKFSPPRRWPLRDYWGQGTQVTVSS | high polyreactivity
QVQLEESGGGLVQAGGSLRFSCAASGITFDQNAMGWYRQAPGKEREFVAAISVSGGRTYYADSVKGPFTISRDNAKNSVYLQLNSLKPDDSAVYYCNADYAFYYPLEPLDVGYDYWGQGTQVTVSS | high polyreactivity
QVQLVESGGGLVQAGGSLRLSCAASGSIFNIYDMGWSRQAPGKERELVAGISWDGDSTYYADSVKGRFTISRDNAKNTVYLQMNSLKPEDTAVEYCAAVYTRAHISYYYWGQGTQVTVSS | high polyreactivity
QVQLVESGGGLVQAGGSLRLSCAASGRIFWYYAMGWYRQAPGKEWELVARISSSGGSTYYADSVKGRFTISRDNAKNTVYLQMNSLKPEDTAVYYCAKERYSGSSRYPMDYWGQGTQVTVSS | high polyreactivity
QVQLVESGGGLVQAGGSLRLSCSASGRTFSWYAMGWYRKAPGKERELVAAISYSGGSTYYADSVKGRFTISRDNAKNTVYLQMNSLKPEDTAVYYCARTRRHSQNFDYWGQGTQVIVSS | high polyreactivity
QVQLVESGGGLVQAGGSLRLSCAASVNIFQSYTMGWYRQAPGKERELVARITARGGRTYYADSVQGRFTISRDNANNTVYLQMNSLKPEDTAFYYCAAQHRGPYGVDYWGQGTQVTVSS | high polyreactivity
QVQLVESGGGLVQAGGSLRLSCAASGRIFRYYVMGWYRQAPGKERELVAAISRSGGSTRYADSVKGRFTISRDNAKNTVYLQMNSLKPEDTAVYYCAATSRSYNDYDYWGQGTQVTVSS | high polyreactivity
QVQLVESGGGLVQAGGSLRLSCAASGYIFVVNAMGWYRQAPGKERELVAAIDWGGGSTYADSVKGRFTISRDNAKNTVYLQMNSLKPEDTAVYYCAADLWPYPNDYWGQGTQVTVSS | low polyreactivity
QVQLVESGVGLVQAGGSLRLSCAASGSISQGNAMGWYRQAPGKERELVAANRWTSGRTYYADSVKGRFTISRDIAKNTVYLQMNSLKPEDTAEYYCAAYYVYYTPTLFDRVYWGQGSQVTVSS | low polyreactivity
QVQLVESGGGLVQAGGSLRLSCAASGRIFSYNAMGWYRQAPGKERELVAAITGGGSTNYADSVQGRFTISRDNAKNTVYLHMTSLKPEDTAVYYCAADARGYGYYYWGQGTQVTVSS | high polyreactivity
QVQLVESGGGLVQAGASLRLSCAASVSTFGVNAMGCYRQAPGKERELVAAISSSGSSTYADSVKGRFTISRDNAKNTVYLQMNSLKPEDTAVYYCNITTLLSVVYDYWGQGTQVNVSS | low polyreactivity
QVQLVESGGGLVQAGGSLRLSCADSGSTFTVYVMGWYRQAPGKETEFVAAITRIGGSTYYADSVKGRFTISRDYAKNTVYLQRNCLKTEDTAVYYCATYHTNSYYQLLYDYWGQGTQVTVSS | low polyreactivity
QVQLVESGGGLVQAGGSLRLSCAASGFTIASNDMGWYRQAPGKERELVAAITKGGGRTYYADSVKGRFTISRDNAKNTVYLQMNSLKPEDTAVYYCAARQLIKYDYWGQGTQVTVSS | low polyreactivity
QVQLVESGGGLVQAGGSLRLSCAASGLTFEYYTMGWYRQAPGKERELVAAITSSGGSTYYADSVKGRFTISRDNAKNTVYLQMNSLKPEDTAVYYCAARWRHYFVWKSYDYWGQGTQVTVSS | low polyreactivity
QVQLVESGGGLVQAGGRLRISCAASGRIFPYNAMGWYIQAPGKERELVAAINWSGGSTYYADSVKGRFTISRDNAKNTVYLQMNSLKPEDTAVYYCAVKTVRSSSRNYWGQGTQVTVSS | high polyreactivity
QVQLVESGGGLVQAGGSLRLSCPASGSIFYENAMGWYRQAPGKARELVAAISRSGGSTYYADSVKGRFTISRDNAKNTVYLQMNSLKPEDTAVYYCNTEGGVIRRYWYDYWGQGTQVTVSS | low polyreactivity
QVQLVESAGGLVQAGGSLRLSCAASGRIFPRYAMGWYRQAPGKERELVAAINTSGGRTYYADSVKGRFTISRDYAKNTVYLQMNSLKPEDTAVYFCAADYRSRYDYWGQGTQVTVSS | high polyreactivity
QVLLQESGGGLVQAGGSLRQSCAASGNIFSAGGMGWYRQAPVNERELVAGIGTGTSTNYADSVKGRFTISRDNAKNTVYLQMNSLKPEDTAVYFCAAAFYSGLSHWYWGQGTQVTVSS | low polyreactivity
QVQLVESGGGLVQAGGSLRLSCGASGAIFSRYAMGWSRPAPGKERQLVAAITSSGGSTYYADSVKGRFTISRDNAKNTVYLQMNSLKPEDTAVYYCATQYAGPWGEYDYWGQGTQVTVSS | low polyreactivity

Sequence | polyreactivity (PSR sort gate)
QVQLVESGGGLVQAGGSLRLSCAASGRTLRGYAMGWYRQAPGKERELVARITGSGGSTYADSVKGRFTISRDNAKNTVYLQMNSLKPEDTAVYYCAAGYSIYYYYAYTISRVSYDYWGQGTQVTVSS | high polyreactivity
QVQLVESGGGLVQAGGSLRLSCAASGSTFFEYAMGWYRKAPGKEREFVAGISWSGGITYYADSVKGRFTISRDNAKNTVYLQMNSLKPEDTAVYYCATAGGDWYGVDYWGQGTQVTVSS | low polyreactivity
QVQLVESGGGIVQAGGSLRLSCAASGRTFRGNAMGWSRQAPVKERELVATIRRPGGSTYYADSVKGRFTISRDNAKNTVYLQMNSLKPEDTAVYYCNALNYYLYDKTFDYWGQGTKVTVSS | high polyreactivity
QVQLVESGGGLVQAGGSLRLSCAASGRIFYINAMGWYRQAPGKERELVAAITEGGVSTYYADSVKGRFTISRDNAMNTVYLQMNSLKPEDTAVYYCNTTGGTDGIVIYEYWGQGTQVTVSS | low polyreactivity
QVQLVETGGGLVQAGGSLRLSCAASGITFASYDMGWYRQAPGKEWELVAAISSGGDTTYADSVKGRFTLSRDNAKNTVSLQMNSLKPEDTAVYYCNKDIDFAVSAYESSPRTMYYWGQGTQVTVSS | low polyreactivity
QVQLVESGGGLVQAGGSLRLSCAASGRTLPSNTMGWYRQAPGTERELVAAISKNGGSTYYADSVKGRFTISRDNAMNTVYLQMNSLKPEDTAVYYCNARYLYGRYRSPLDDYWGQGTQVTVSS | high polyreactivity
QVQLVESGGGLVQAGGSLRLICAASGSTFSYYTIGWYRTAPGKEMELVATISRRGASTYYADSVKGRFTISLDNAKNTVYLQMNSLKPEDTAVYYCAKSYYYGRSATRPEYDYWGQGTQVTVSS | high polyreactivity
QVQLVESGGGLVQAGGSLRLSCAASGSTFLGYAMGWSRQAPGKERELVAAINLSTSGTYYADSVKGRFTISRDNAKNTVYLQMNSLKPEDTAVYYCAAAYSNINYYYQYYYWGQGTQVTVSS | low polyreactivity
QVQLVESGGGLVQAGGSLRLSCAASGRIFRYNAMGWYRQAPGKERELVASISSSGGSTYYADSVKGRFTISRDTAKNTVYLQMNCLKPEDTAVYYCSAYPGDRHSRINLGYWGQGTQVTVSS | high polyreactivity
QVQLEESGGGLVQAGGSLRLSCAPSGFIFAWYAMGCYRQAPGKERELVATISSSGARTYYADSVKGRFTISRDNAKNTVYLQMNSLKPEDTAVYYCAVGSVGRLKFYYWGQGTQVTVSS | high polyreactivity
QVQLVESGGRLVQAGGSRRLSCAASGFTLRRNAMGWYRQAPGKERELVAAISSSGSTYYADSVKGRFTISRDNAKNTVYLQMNSLKPEDTAVYYCAALSKKVRTGQYNVGGDYWGQGTQVTVSS | high polyreactivity
QVQLVESGGGLVQAGGILRLSCAASGLTYFYYAMGWYRQAPGKESELVAAISWSGGRTYYADSVKGRFTISRDNAKNTVYLPMNSLKPEDTAVYYCAADYITAHSSYSTYGYWGQGTQVTVSS | low polyreactivity
QVQLVESGGGLVQAGGSLRLSCAASGSIFRWNSMGGYRQAPGKERELVASITSGGSTYYADSVKGRFTISRDNAKNTVYLQMNSLKPEDTAVYYCAAARYPGRKFDYWGQGTQVTVSS | high polyreactivity
QLQLVESLGGLFQAGGILRLSCAASGRTLRGYGNGWYRQAPAKEREFVAAISTRGGRTYYADSVKGRFTISRDNAKNTVYLQMKILKPEDTAVYYCAAAYEPGDYDSWGQGTQVTVSS | low polyreactivity
QDQLVESGRGLVQAGGSLRLSCAASGINIPVYAMGWYRKAPRKERELLAAISSGGSTYYADSVKGRFTISRDNAKNTVYLQMNSLKPEDTAVYYCAAATRSAKYRFGYWGQGTQVTVSS | high polyreactivity
QVQLVESGGGLVQAGGSLRLSCAASGSTSPVYAMGWYRQAPGKERELVAAISSSGSRTYYADSVKGRFTISRDNAKNTVYLQMNCLKPEDSAVYYCAADWWAWRAYYYWGQGTQVTVSS | high polyreactivity
QVQLVESGGGLVQAGGSLRLSCAASGRIFYYNTMGWYRQAPGKERELVAAISYRGGSTYYADSVKGRFTISRDNAKNTVYLQMNSLKTEDTAVYYCAAPVRQSSYTRYDSWGQGTQVTVSS | high polyreactivity
QVKLVESGVGLVKAGVSLRLSSAASGFTFYSYAMGCYRQAPGKESELVAAISWSGSRTYYADSVKGRFTISRDNAKNTVYLQMNSLKPEDTGVYYCAAYSYVRYSSWSDYWGLGTQVTVSS | high polyreactivity
QVQLVESGGGLVQAGGSLRLSCAASGRTSLLYAMGWYRQAPGKERELVATISIGGSTYYADSVKGRFTISRDNAKKTVYLQMKSRKPEDTAVYYCAADVWWFFQPSTLGDFEYWGQGTQVTVSS | low polyreactivity
QVQLVESGGGLVQAGGSLRLSCAASGRIFAHNAMGWYRQAPGKERELVAAINSGGSTRYADSVKGRFTISRDNAKNTVYLQMNSLKPEDTAVYYCARGPKGYYFARYGYWGQGTQVTVSS | high polyreactivity
QVQLVESGGGLVQAGGSLRLSCAASGFTFFKYAMGWYRQAPGKERELVAAITRNGGRTYYADSVKGRFTISRDYAKNTVYLQMNSLKPEDTAVYYCNAASVNGGRDFDYWGQGTQVTVSS | high polyreactivity
